In patent US20240018513A1, “SYNTHETIC INTRONS FOR TARGETED GENE EXPRESSION” (FRED HUTCHINSON CANCER CENTER, priority 2020, published 2024):

What was measured:
WT K562 cells = test: Mini-screen: pooled synthetic intron mini-library in HSV-TK, GCV treatment, full-length intron sequencing from genomic DNA; type: cell-based; details: genotype WT (SF3B1+/+) K562; GCV 100 ug/mL; day 6; vector hPGK-PuroR-P2A-HSV-TK
Source text: (§1) Therefore, a massively parallel splicing assay was developed to map and functionally interrogate key sequence features within the synthetic intron. First, a pilot mini-library of eight synthetic introns was synthesized, seven of which were much shorter (lengths of 100-158 nt) than the parent synthetic intron (synMTERFD3i1-250), and each with one or more perturbations to potentially critical features (FIG. 2E). This mini-library was cloned into HSV-TK, introduced into WT or SF3B1-mutant K562 cells with a lentiviral vector at a low multiplicity of infection, and treated with GCV. Relative depletion of each construct was measured by high-throughput sequencing of the entire introns from genomic DNA after six days of treatment (TABLE 1).
(§2) Each synthetic intron used in the mini-library was ordered individually as a gBlock (Integrated DNA Technologies), consisting of the desired intron flanked by homology arms for cloning (5′ arm: […] (SEQ ID NO:158); 3′ arm: […] (SEQ ID NO:159; TABLE 3). The gBlocks were then mixed in equal proportions before being cloned into hPGK-PuroR-P2A-HSV-TK using a previously published strategy for pooled cloning (Thomas, J. D. et al. RNA isoform screens uncover the essentiality and tumor-suppressor activity of ultraconserved poison exons. Nature genetics 52, 84-94 (2020), incorporated herein by reference in its entirety). This intron mix was then amplified using NEBNext High Fidelity Ready Mix (New England Biolabs) and purified using 1.8×AMPure XP SPRI beads (Beckman Coulter). The backbone for the library was amplified using Q5 polymerase (New England Biolabs). The library was transformed and amplified using Endura ElectroCompetent Cells (Lucigen, 60242-2) and large LB plates. The library was maxiprepped using a Macherey-Nagel MaxiPrep kit (Thermo Fisher Scientific, Cat 740414.10).
(§3) WT or SF3B1-mutant K562 cells were infected with lentivirus encoding the mini-library at an MOI of 0.3 and untreated or treated with GCV (100 ug/mL) for 6 days. Genomic DNA was collected at day 6 and the resulting Illumina libraries were sequenced with 2×150 bp reads (Illumina MiSeq). Depletion/enrichment of each construct was estimated as follows. For each sample, reads were normalized to the total reads mapped. The relative fraction of reads mapping to each intron was then estimated by dividing the numbers of normalized reads mapped to an intron by the total reads mapped in the sample. The standard deviation was calculated using the sample proportion P for each intron (σ=sqrt [P(1−P)/n]). A fold-change was calculated for each intron by dividing the proportion of the intron in the treated GCV samples by the fraction of the intron in the untreated samples. Error propagation was used to estimate the standard deviation. The final relative fold-changes were computed by normalizing fold-changes such that the fold-change of synMTERFD3i1-250 in the pilot screen was identical to the experimentally measured fold-change in a single-construct experiment (FIG. 2C, 100 μg/mL of GCV).

SF3B1-mutant K562 cells = test: as above; type: cell-based; details: genotype K700E (SF3B1+/K700E) K562; GCV 100 ug/mL; day 6; vector hPGK-PuroR-P2A-HSV-TK
Source text: as §1, §2, §3

| Molecule | fold-change (estimated fold-change in intron abundance in gDNA) (WT K562 cells) | fold-change (estimated fold-change in intron abundance in gDNA) (SF3B1-mutant K562 cells) |
| --- | --- | --- |
| intron_2258: 100 nt MTERFD3 intron 1-derived synthetic intron, deletion 15to65; SEQ ID NO 57/65 (nucleic acid, expressed or natural sequence) DNA 1: GTGAGTCGCCCCCTTAGGCCTTGTAGGCCATGGTAAGGCATTTCTATGTTTTATTTTACTTTGTCTTTATCCTAAAATGCCATTGGCAAGTTTATTGCAG DNA 2: GTGAGTCGCCCCCTTAGGCCTTGTAGGCCATGGTAAGGCATTTCTATGTTTTATTTTACTTTGTCTTTATCCTAAAATGCCATTGGCAAGTTTATTGCAG | 1.279 | 0.4996 |
| intron_9600: 158 nt synthetic intron, insertion 89_TACTAACA consensus branchpoint; SEQ ID NO 62/70 (nucleic acid) DNA 1: GTGAGTCGCCCCCTTCCTCTGCTCCGAGAGGGAAATGGGAATTAGGGTGGTGGCAGAGCCCAAAGAGGCCTTGTAGGCCATGGTAAGGCTACTAACAATTTCTATGTTTTATTTTACTTTGTCTTTATCCTAAAATGCCATTGGCAAGTTTATTGCAG DNA 2: GTGAGTCGCCCCCTTCCTCTGCTCCGAGAGGGAAATGGGAATTAGGGTGGTGGCAGAGCCCAAAGAGGCCTTGTAGGCCATGGTAAGGCTACTAACAATTTCTATGTTTTATTTTACTTTGTCTTTATCCTAAAATGCCATTGGCAAGTTTATTGCAG | 1.112 | 0.2356 |
| intron_13121: 150 nt control synthetic intron, GT_to_CC + AG_to_CC splice site mutations; SEQ ID NO 56/64 (nucleic acid) DNA 1: CCGAGTCGCCCCCTTCCTCTGCTCCGAGAGGGAAATGGGAATTAGGGTGGTGGCAGAGCCCAAAGAGGCCTTGTAGGCCATGGTAAGGCATTTCTATGTTTTATTTTACTTTGTCTTTATCCTAAAATGCCATTGGCAAGTTTATTGCCC DNA 2: CCGAGTCGCCCCCTTCCTCTGCTCCGAGAGGGAAATGGGAATTAGGGTGGTGGCAGAGCCCAAAGAGGCCTTGTAGGCCATGGTAAGGCATTTCTATGTTTTATTTTACTTTGTCTTTATCCTAAAATGCCATTGGCAAGTTTATTGCCC | 1.226 | 0.8961 |
| intron_4095: 150 nt synthetic intron, 138_AtoC-139_GtoC (cryptic 3′ss at −11 removed); SEQ ID NO 60/68 (nucleic acid) DNA 1: GTGAGTCGCCCCCTTCCTCTGCTCCGAGAGGGAAATGGGAATTAGGGTGGTGGCAGAGCCCAAAGAGGCCTTGTAGGCCATGGTAAGGCATTTCTATGTTTTATTTTACTTTGTCTTTATCCTAAAATGCCATTGGCACCTTTATTGCAG DNA 2: GTGAGTCGCCCCCTTCCTCTGCTCCGAGAGGGAAATGGGAATTAGGGTGGTGGCAGAGCCCAAAGAGGCCTTGTAGGCCATGGTAAGGCATTTCTATGTTTTATTTTACTTTGTCTTTATCCTAAAATGCCATTGGCACCTTTATTGCAG | 0.3305 | 0.2637 |
| intron_2790: 150 nt synthetic intron, mutation 148_AtoG (canonical 3′ss); SEQ ID NO 59/67 (nucleic acid) DNA 1: GTGAGTCGCCCCCTTCCTCTGCTCCGAGAGGGAAATGGGAATTAGGGTGGTGGCAGAGCCCAAAGAGGCCTTGTAGGCCATGGTAAGGCATTTCTATGTTTTATTTTACTTTGTCTTTATCCTAAAATGCCATTGGCAAGTTTATTGCGG DNA 2: GTGAGTCGCCCCCTTCCTCTGCTCCGAGAGGGAAATGGGAATTAGGGTGGTGGCAGAGCCCAAAGAGGCCTTGTAGGCCATGGTAAGGCATTTCTATGTTTTATTTTACTTTGTCTTTATCCTAAAATGCCATTGGCAAGTTTATTGCGG | 1.042 | 0.7611 |
| intron_8499: 150 nt synthetic intron, 89/95/102/107 AtoG branchpoint ablation; SEQ ID NO 61/69 (nucleic acid) DNA 1: GTGAGTCGCCCCCTTCCTCTGCTCCGAGAGGGAAATGGGAATTAGGGTGGTGGCAGAGCCCAAAGAGGCCTTGTAGGCCATGGTAAGGCGTTTCTGTGTTTTGTTTTGCTTTGTCTTTATCCTAAAATGCCATTGGCAAGTTTATTGCAG DNA 2: GTGAGTCGCCCCCTTCCTCTGCTCCGAGAGGGAAATGGGAATTAGGGTGGTGGCAGAGCCCAAAGAGGCCTTGTAGGCCATGGTAAGGCGTTTCTGTGTTTTGTTTTGCTTTGTCTTTATCCTAAAATGCCATTGGCAAGTTTATTGCAG | 1.15 | 0.2767 |
